According to the nanobody polyreactivity screen of Harvey et al. (2022):

Experiment: yeast display, Sf9 membrane polyspecificity reagent, FACS + sequencing; frameworks hold sequencing errors
How it was run: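 Sorting gates, low and high (top ~1%), were placed on anti-HA fluorescence to track expression and on streptavidin fluorescence to track reagent binding. A clone's polyreactivity label is taken from the gate it came out of. The reagent was 10% biotinylated, detergent-solubilized Sf9 membrane, applied for 1 hour at 4 °C to galactose-induced yeast display cells.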

Row | Sequence | polyreactivity (PSR sort gate)
1 | QVQLVESGGGLVQAGGSLRLSCAASGRIFFVYAMGWYRQAPGKERELVAGIRSSGGSTYYADSVKGRFTISRDNAKKTVYLQMNSLKPEDTAVYYCAARRVGYPSPYSTYGMYYWGQGTQVTVSS | high polyreactivity
2 | QVQLVESGGGLVQAGVSLRLSCAASGITFARYTMGWYRQAPGKERELVAAINTSGGSTRYADSVKGRFTISRDNAKNTVYLQMNSLKPEDTAVYYCAARRKHSLFGKRYYWGQGTQVTVSS | high polyreactivity
3 | QVQLVESGGGLVQAGGSLRLSCAASGFTFAVYAMGWYRQAPGKERELVAAISDSGGSTYYADSVKGRFTISRDNAKNTVYLQMNSLKPEDTAVYYCNRDWIVSGYYAYYEFDYWGQGTQVTVSS | low polyreactivity
4 | QDQHVESGGGLVQAGGSLRLSCAASGRTFGNYAMGWYRQAPGKERELVADITRRGGSTSYADSVKGRFTISRDNAKNTVYLQMNSLKPEDTAVYYCNKAADGSSHYDYWGQGTQVTVSS | low polyreactivity
5 | QVQLVESGGGLVQAGGSLRLSCAASGFTFERNTMGWYRQAPGKERELVATITRRGTSTYYADSVKGRFTISRDNAKNTVYLQMNSLKPEDTAVYYCARGQYSHRSQAGMDYWGQGTQVTVSS | high polyreactivity
6 | QVQLVESGGGLVQAGGSLRLSCAASGRIFTYNPMGWYRQAPGKERELVAAISTRGGTTRYADSVKGRFTISRDNAKNTVYLQMNSLKPEDTAVYSCNAVSRGSRWDGLVRLDYWGQGTQVTVSS | high polyreactivity
7 | QVQLVESGGGLVQAGGSLRLSCAASGITFYDYAMGWYRQAPGKERELVAAISDSGGITYYADSVKGRFTISRDNAKNTVYLQMNSLKPEDTAVYFCAAEDQLNRDYWGQGTQVTVSS | high polyreactivity
8 | QVQLVESGGGLVQAGGSLRLSCAASGSIFDINAMGWYRQAPGKERELVAAISYGGGSTSYADSVKGRFTISRDNAKNTVYLQMNSLKPEDTAVYYCAAGYTQSPRDDSWGQGTQVTVSS | low polyreactivity
9 | QVQLVESGGGLVQAGGSLRLRCAASGRIFPYYAMGWYRQSPGKERELVAAIRWSGGDTYYADSVKGRFTISRDNAKNTVYLQMNSLKPEDTAVYYCAAKAYSYSRWGYYGYYYWGQGTQVTVSS | high polyreactivity
10 | QVQLVESGGGIVQAGGSLRLAVLPPDLPSTLNDMGWSTQAPGKERELVAAITRGGSTNSADSVKGRFTISRDNAKNTVYLQMNILKPEDTAVYYCDKDSLVDHVGGYDYWGQATQVTVSS | low polyreactivity
11 | QVQLVESGGGLVQAGGSLRISCAASGLSFYRYTMGWYRHAPGKEREFVAAITAGGSTYYADSVKGRFTISRDNAKNPVYLQMNRLKPEDTAVYYCAPRVLMEQYTYIKYDYWGQGTQVTVSS | high polyreactivity
12 | QVQHVDSGGGLVQAGGSLRLSFAASGFRFGINAMGWYRPAPGKERELVAAISKRTGSTYYADSVKGRFTSSRDNAKNTVYLQMNSLKPEDTAVYYCNKRVFPGYRLGGFWGQGTQVTVSS | high polyreactivity
13 | QVQLVESGGGLVQAGGSLRLSCAASGFIFNAYVMGWYRQAPGKERELVAAITASGGSTYYADSVKGRFTISRDNAKNTVYLQMNSLKPEDTAVYYCAAAHPYDSRFDYWGQGTQVTVSS | high polyreactivity
14 | QVQLVESGGGLVQAGGSLRLSCAASGGIFWHYTMGWYRQAPGKERELVAAITRRGGSTYYADSVKGRFTISRDNAKNTVYLQMNSLKPEDTSVYYGAAVFEWTSRGSYYRYYYWGQGTQVTVSS | low polyreactivity
15 | QDQLVESGGGLVQAGGSLRLSCAASGRTFHLYAMGWYRPAPGKERELVAAIRWTGVSTYYADSVKGRFTISRDNAKNTVYLEMNSLKPEDTAVYYCATKQRYRVSRDWSSYCYGYWGQGTQVTVSS | high polyreactivity
16 | QVQLVESGGGLVQAGGSLRLSCAASGYIFYRNAMGWYRQAPGKEREFVAAISSSGVSTYYADSVKGRFTISRDTAKNTVYLQMNSLKPEDTAVYYCNTGYIFSSFYSSKYGYWGQGTQVTVSS | low polyreactivity
17 | QVQLVESGGGLVQAGGSLRLSCAASGSIFVPYAMGWYRQAPGKERELVAAISSRGGSTYYADSVKGRFTISRDTAKNTVYLQMNSLKPEDTAVYYCNTEISRNYYWALYGYWGQGTQVTVSS | low polyreactivity
18 | QVQLVESGGGLVQAGGSLRLSCAASGFTFSGYDMGWYRQAPGKERELVAGISSVDHTYYADSVKGRFTISRDNAKNTVYLQMNSLKPEDTAVYYCAATLWPYYYVEYDYWGQGTEVTVSS | low polyreactivity
19 | QLQLVESGGGLVQAGGSLRLSCAASGSTASINAMGWYRQAPGKERELVADISTNGDSTSYADSVKGRFTISRDNAKNTVYLQMNSLKPEDTAVYYCNAVPHIYAEGTAYKYWGQGTQETVSS | low polyreactivity
20 | QVQLEESGGGLVQAGGSLRLSCDASGFTFAYYAMGWYRPAPGKEREFVAAITKGGGSTNYADSVKGRFTISRDNAKNTVYLQMNSLKPEDTAVYYCNADYFVWYIGRVFSRYGYWGLGTQVTVSS | low polyreactivity
21 | QVQLVESGGGLVQAGGSLRLSCAASGSTFYGYTMGWYRRAPGKERELVAAITFRGGSTYYADSVKGRFTISRDNAKNTVYLQMNSLKPEDTAVYYCAAVGRYSRYPYSDTYGYWGQGTQVTVSS | high polyreactivity
22 | QVQLVESGGGLVQAGGSLRLSCAASGITISGYAMGWYRQAPGKERELVAAISRRGGSTYYADSVKGRFTISRDNAKNTVYLQMNSLKPEDTAVYYCARYPSRNYNYWGQGTQVTVSS | high polyreactivity

Row | Sequence | polyreactivity (PSR sort gate)
23 | QVQLVESGGGLVQAGGSLRLSCAASGRTFGFNVMGWYRQAPGKEREFVAAITRSGGSTYYADSVKGRFTISRDNAKNTVYLQMNSLKPEDTAVYYCAAYKFSARYYYWGQGTQVTVSS | high polyreactivity
24 | QVQLVESGGGLVQAGGSLRLSCAASGRTFNSNAMGCYRQAPGKERELVARISRGASTYYADSVKGRFTISRDNAKNTVYLQMNSLKPEDTAVYYCAKRRRSAAPKYDYWGQGTQVTVSS | high polyreactivity
25 | QVQLVESGGGLVQAGGSLRLSCAASGITFVRYAMGWYRQAPGKERELVAAINFSGGNTYYADSVKGRFTISRDNAKNTVYLQMNSLKPEDTAVYYCNAKRNYVRGRQGDWYIGYGYWGQGTQVTVSS | high polyreactivity
26 | QVQLVESGGGLVQAGGSLRLSCAASGRISYANAMGWYRQAPGKERELVASITYSAGSTYADSVKGRFTISRDNAKYTVYLQMNSLKPEDSAVYYCNAYHVIYARESDYWGQCTQVTVSS | low polyreactivity
27 | QVQLVESGGGLVQAGGSLRLSCAASGFTFTRNAMGWYRQAPGKERELVAAISSSGTSTYYADSVKGRFTISRDNAKNTVYLQMNSLKPEDTAVYYCAKDFYRRYYSWGLGTQVTVSS | high polyreactivity
28 | QVQLVESGGGLVQAGGSLRLSCAASGFTFYYNARGWYRQAPGKERELVASITRSGGRTYYADSVKGRFTISRDNAKNTVYLQMNSLKPEDTAVYYCAAANHKGSRMDYWGQGTQVTVSS | high polyreactivity
29 | QVQLVESGGGLVQAGGSLRLSCAASGITFYFNAMGWYRQAPGKERELVAAITFSGSSTYYADSVKGRFTISRDKAKNTVYLQMNSLKPEDTAVYYCAAYFTRYDFRWHTYYYWGEGTQVTVSS | low polyreactivity
30 | QVQLVESGGGLVQAGGSLRLSFDASGLIFWGYAMGWYRQAPGKERELVAAISSSCGSTYYADSVKGRFTISRDNAKNTVYLEMNSLQPEDTAVYYCNADYTYYPGYDFWGQGTQVTVSS | low polyreactivity
31 | QVQLVESGGGLVQAGGSLRLSCAASGNNFSRYSMGCSRPAPGKERELVASISRGGRTNYADSVKGRFTISLDNAKNTVYLQMNSLNPEDTAVYYCALGGNGYWHQSGPYPYNYWGQGTQVTVSS | high polyreactivity
32 | QVQLVESGGGLVQAGGSLRLSCAASGRIFWSNAMGWYRQAPGKERELVAAIRWSGGSTYYADSVKGRCTISRDNAKTTVYLQMNSLKPEDTAVYYCAASPYWSDWTKVDSWGQGTQVTVSS | low polyreactivity
33 | QVQLVESGGGLVQAGGSLRLSCADSGSIFEVYAMGWYRQAAGKERELVAAINYTGGSTYYADSVKGRFTISRDNAKITVYLQMNSLKPEDTAVYYCARDTSGNGTRYDYWGQGTQVTVSS | low polyreactivity
34 | QVQLVESGGGLVQAGGSLRLSCAASGRTLLLNTMGWYRQAPGKERELVAAISWRDGSTYYADSVKGRFTISRDNAKNTVYLQMNSLKPEDTAVYYCNARLSGRSPYDLRFDYWGQGTQVTVSS | low polyreactivity
35 | QVQLVESGGGLVQAGGSLRLSCAASGRTLNAYAMGWYRQAPGKERELVAAITGDDGSTYYADSVKGRFTISRDNAKNTVYLQMNTLKPEDTAVYYCAAVTFSYDGYDYWGQGTQVTVSS | low polyreactivity
36 | QVQLVESGGGLVQAGGSLRLSCAASGRIFGRYAMGWYRQAPGKERELVADITYRTGRTYYADSVKGRFTISRDNAKNTVYLQMNSMKPEDTAVYYCAAESTSDPIDFEYWGQGTQVTVSS | low polyreactivity
37 | QVQLVESGGGLVQAGGSLRLSCAASGRIIPRNAMGWYRQAPGKEMELVAGISRGGSTYYADSVKGRFTISRDNAKNTVYLQMNSLKTEDTAVYYCAAAYQKSPITPKMDYWGQGTQVTVSS | low polyreactivity
38 | QVQLVESGGGLVQAGGTLRLSCAASGITFHRYDMGWYRQAPGKERELVADITWSGGSTYYADSVKGRFTISRDNAKNTVYLQMNSLKPEDTAVYYCAADASTYTYTPYDNWGQGTQVTVSS | low polyreactivity
39 | QVQLVESGGGLVQAGGSLRLSCAASGRIFGNNVMGWYRQEPGKERELVAAITFSGTSTYYADSVKGRFTISRDNAKNTVYLQMNSLKPEDTAVYYCAKYRYADYYSPGYDYWGQGTQVTVSS | low polyreactivity
40 | QVQLVESGGGLVQAGGSLRISCAASGFTFQYYAMGWYRQAPGKERELVATITTSGGNTYYADSVKGRFTISRDNEKNTVYLQMNCLNPEDTAVYYCAARRYRASSRGYGYWGQGTQVTVSS | high polyreactivity
41 | QVQLVESGGGLVQAGGRLRISCAASGRTFQVYTIGWYRQAPGKERELVAAITWNGGRSRYADSVKGRFTISRDNAKNTVYLQMNRLKPEDTAVYYCNAGSTELGWTWELDYWGQGTQVTVSS | high polyreactivity
42 | QVQLVESAGGLVQAGGSLSLSCAASGLTFHYYHMGWYRQATGKETELVAAITSSGGRTYYADSVKGRFTISRDNEKNTVFLQMNSLKPEDTAVYFCAADIYPDWIYLLYGYWGQGTQVTVSS | low polyreactivity
43 | QVQLVESGGGLVQAGGSLRLSCASSGIIFGGNAMGWYRQAPGKERELVATISNGGSTKYADSVKGRFTISRDNAKNTVYLQMNSLKPEDTAVYYCAAQPRVGSYVRSSRGRYNHWGQGTQVTVSS | high polyreactivity
